The values below come from patent publication US20200216495A1 (ADRX, published 2020).

Values joined by “and” are separate entries in the source; they are usually repeats but may differ in a detail not shown here. Equal entries are not always repeated. Square brackets hold non-standard residues; d marks the D form. Ends that are not written are not given here.

The chains are these.
B1: wklklrw (peptide)
peptide: [dW][dK][dL][dK][dL][dR][dW]
B2: wrlrihm (peptide)
peptide: [dW][dR][dL][dR][dI][dH][dM]
B3: rrlkvrww (peptide)
peptide: [dR][dR][dL][dK][dV][dR][dW][dW]
B4: klkivw (peptide)
peptide: [dK][dL][dK][dI][dV][dW]
B5: elkivw (peptide)
peptide: [dE][dL][dK][dI][dV][dW]
B6: lkiaihy (peptide)
peptide: [dL][dK][dI][dA][dI][dH][dY]
B7: kirihyhl (peptide)
peptide: [dK][dI][dR][dI][dH][dY][dH][dL]
B8: lkirihrh (peptide)
peptide: [dL][dK][dI][dR][dI][dH][dR][dH]
B9: mrlkvrw (peptide)
peptide: [dM][dR][dL][dK][dV][dR][dW]
B10: wrlkvrew (peptide)
peptide: [dW][dR][dL][dK][dV][dR][dE][dW]
B11: tlkivw (peptide)
peptide: [dT][dL][dK][dI][dV][dW]
B12: akirihyh (peptide)
peptide: [dA][dK][dI][dR][dI][dH][dY][dH]
B13: arlrihw (peptide)
peptide: [dA][dR][dL][dR][dI][dH][dW]
B14: wrlriha (peptide)
peptide: [dW][dR][dL][dR][dI][dH][dA]
B15: wrlriht (peptide)
peptide: [dW][dR][dL][dR][dI][dH][dT]
B16: lkarihyh (peptide)
peptide: [dL][dK][dA][dR][dI][dH][dY][dH]
B17: wrlrmhw (peptide)
peptide: [dW][dR][dL][dR][dM][dH][dW]
B18: wrlrifw (peptide)
peptide: [dW][dR][dL][dR][dI][dF][dW]
B19: lkiriha (peptide)
peptide: [dL][dK][dI][dR][dI][dH][dA]
B20: rtlkivwr (peptide)
peptide: [dR][dT][dL][dK][dI][dV][dW][dR]
B21: wrlaihw (peptide)
peptide: [dW][dR][dL][dA][dI][dH][dW]
B22: lkirihah (peptide)
peptide: [dL][dK][dI][dR][dI][dH][dA][dH]
B23: wrlkvrrw (peptide)
peptide: [dW][dR][dL][dK][dV][dR][dR][dW]
B24: lkiriayh (peptide)
peptide: [dL][dK][dI][dR][dI][dA][dY][dH]
B25: lkirieyh (peptide)
peptide: [dL][dK][dI][dR][dI][dE][dY][dH]
B26: tiklvw (peptide)
peptide: [dT][dI][dK][dL][dV][dW]
B27: tkirihy (peptide)
peptide: [dT][dK][dI][dR][dI][dH][dY]
B28: wrlktrw (peptide)
peptide: [dW][dR][dL][dK][dT][dR][dW]
B29: wrrkvrww (peptide)
peptide: [dW][dR][dR][dK][dV][dR][dW][dW]
B30: wrekvrww (peptide)
peptide: [dW][dR][dE][dK][dV][dR][dW][dW]
B31: vrwwwrlk (peptide)
peptide: [dV][dR][dW][dW][dW][dR][dL][dK]
B32: irihyhlk (peptide)
peptide: [dI][dR][dI][dH][dY][dH][dL][dK]
B33: yrlkvrw (peptide)
peptide: [dY][dR][dL][dK][dV][dR][dW]
B34: rkirihyh (peptide)
peptide: [dR][dK][dI][dR][dI][dH][dY][dH]
B35: rlkvrww (peptide)
peptide: [dR][dL][dK][dV][dR][dW][dW]
B36: wrlmihw (peptide)
peptide: [dW][dR][dL][dM][dI][dH][dW]
B37: wflrihw (peptide)
peptide: [dW][dF][dL][dR][dI][dH][dW]
B38: klkwlw (peptide)
peptide: [dK][dL][dK][dW][dL][dW]
B39: lkvrww (peptide)
peptide: [dL][dK][dV][dR][dW][dW]
B40: fwlrihwf (peptide)
peptide: [dF][dW][dL][dR][dI][dH][dW][dF]
B41: vkvwgrlw (peptide)
peptide: [dV][dK][dV][dW]G[dR][dL][dW]
modifications: not fully specified (residue 5); printed as vkvwgrlw

The test deals with Ac-VQIINK-NH2 (SEQ ID NO: 23) (N-terminal acetyl (Ac); C-terminal amide (NH2)). The test is described as follows: cell-based or functional assay.
For the molecule B1, the “VQIINK Inhibition IC50” value stood at 5.33 µm.
The result for B2 reads 7.39 µm; that for B3, 4.44 µm.
Turning to B4, the “VQIINK Inhibition IC50” value was 6.95 µm.
Take B5: the “VQIINK Inhibition IC50” value came out at 6.85 µm.
Turning to B6, the “VQIINK Inhibition IC50” value stood at 4.77 µm.
The result for B7 reads 7.25 µm; that for B8, 7.35 µm; that for B9, 5.67 µm.
The result for B10 reads 5.77 µm.
As for B11, the “VQIINK Inhibition IC50” value was 5.02 µm and 7.98 µm.
For B12, the “VQIINK Inhibition IC50” value stood at 8.93 µm.
As for B13, the “VQIINK Inhibition IC50” value is 6.61 µm.
Consider B14, for which the “VQIINK Inhibition IC50” value amounted to 9.75 µm.
As to B15, the “VQIINK Inhibition IC50” value is 7.32 µm.
As to B16, the “VQIINK Inhibition IC50” value came to 10 µm.
The result for B17 reads 8.93 µm; that for B18, 6.33 µm.
With B19, the “VQIINK Inhibition IC50” value was 5.3 µm.
The result for B20 reads 5.65 µm; that for B21, 6.49 µm.
Consider B22, for which the “VQIINK Inhibition IC50” value came out at 5.54 µm.
As for B23, the “VQIINK Inhibition IC50” value is 7.04 µm.
In the case of B24, the “VQIINK Inhibition IC50” value is 5.21 µm.
With B25 the figure was 7.95 µm; with B26, 5.37 µm; with B27, 4.77 µm.
With B28 the figure was 8.61 µm.
With B29 the figure was 6.43 µm.
In the case of B30, the “VQIINK Inhibition IC50” value came to 7.34 µm.
With B31 the figure was 9.47 µm; with B32, 8.69 µm; with B33, 5.12 µm.
For B34, the “VQIINK Inhibition IC50” value is 5.59 µm.
Regarding B35, the “VQIINK Inhibition IC50” value was determined as 5.35 µm.
For the molecule B36, the “VQIINK Inhibition IC50” value came out at 6.58 µm.
The result for B37 reads 8.18 µm; that for B38, 6.93 µm; that for B39, 6.63 µm.
As for B40, the “VQIINK Inhibition IC50” value was found to be 4.42 µm.
The result for B41 reads 4.51 µm.
